Measurements reported in patent US20050221478A1, “Control of es cell self renewal and lineage specification, and medium therefor” (University of Edinburgh, priority 2002, published 2005).

Legend:
ES cells [1] = assay: Serum-free medium and transient growth factor stimulation: numbers of undifferentiated ES cells; assay type: cell-based; conditions: factor continuously present in LIF and BMP4 medium
Protocol: ES cells were grown initally in a medium comprising DMEM F12 plus neurobasal medium (ratio 1:1) supplemented with N2-B27. ES cells were plated at very low density, about 1000-10,000 cells on a 3.5 cm diameter plate and grown on in the same medium supplemented with LIF and BMP4. […]
We observed enhanced numbers of undifferentiated ES cells, indicating increased proliferation or increased ES cell survival, or both.
After more (5-6) passages the rank order of efficacy changed to:—

ES cells [2] = assay: Extended passaging of ES cells in serum free, feeder cell free defined culture media; assay type: cell-based, murine; conditions: after multiple passages in serum free medium
Description: When using the LIF and BMP4-containing medium of a specific embodiment of the present invention extended passaging of ES cells is possible. In one example, murine ES cells have been maintained for more than 20 passages over a three month period. Cells were passaged every 2-4 days depending on the plating cell density, though occasionally cells were passaged 7-10 days after plating at low density.
In an alternative embodiment, it is an option not to remove the FGF receptor inhibitor. […] ES-cells can be grown in culture for at least 20 passages in. N2B27 medium in the presence of LIF and an FGF inhibitor, in the absence of BMP. If the FGF receptor inhibitor is not removed from the medium, it is preferred that it is a specific inhibitor and has little or no activity on other receptors.
N2B27 (1:1 mixture of DMEM/F12 medium supplemented with modified N2 (25 μg/ml insulin, 100 μg/ml apo-transferrin, 6 ng/ml progesterone, 16 μg/ml putrescine, 30 nM sodium selenite and 50 μg/ml bovine serum albumin) and Neurobasal medium supplemented with B27)
ES cells were cultured in 0.1% gelatin coated dishes in N2B27 medium supplemented with LIF (100 U/ml) and BMP4 (10 ng/ml). For passaging, a standard protein-free cell dissociation buffer was used to dissociate cells.
The plating density of the cells was approximately 1-5×10^4/cm^2. […]

ES cells [3] = assay: Self-renewal of pluripotent cells with agonists of a receptor of the TGF-β superfamily or FGF receptor inhibitor; assay type: cell-based

TGFβ: growth factor added to the culture medium at 1-2 ng/ml
effect when continuously present (ES cells [1]): progressive differentiation of the ES cells

B1: activin A: growth factor added to the culture medium at 5 ng/ml (protein, UniProt P08476 311-426, looked up)
Inhibin beta A chain: GLECDGKVNICCKKQFFVSFKDIGWNDWIIAPSGYHANYCEGECPSHIAGTSGSSLSFHSTVINHYRMRGHSPFANLKSCCVPTKLRPMSMLYYDDGQNIIKKDIQNMIVEECGCS
effect when continuously present (ES cells [1]): progressive differentiation of the ES cells

B2: BMP4: bone morphogenetic protein, agonist of a receptor of the TGF-β superfamily (protein, UniProt P12644 293-408, looked up)
Bone morphogenetic protein 4: SPKHHSQRARKKNKNCRRHSLYVDFSDVGWNDWIVAPPGYQAFYCHGDCPFPLADHLNSTNHAIVQTLVNSVNSSIPKACCVPTELSAISMLYLDEYDKVVLKNYQEMVVEGCGCR
differentiation of ES cells in the presence of BMP4 but absence of LIF (ES cells [2]): differentiated into large flat cells of characteristic morphology
result as agonist of a receptor of the TGF-β superfamily for self-renewal (ES cells [3]): Good results
